Columns and labels:
[1] = target: recombinant human Pol δ core dimer (p125/p50) (human) (UniProt P28340)
[2] = target: recombinant human Pol δ core+p12 trimer (p125/p50/p12) (human) (UniProt P28340)
[3] = target: recombinant human Pol δ core+p68 trimer (p125/p50/p68) (human) (UniProt P28340)
[4] = target: recombinant human Pol δ holoenzyme (heterotetramer p125/p50/p68/p12) (human) (UniProt P28340)
Chain of recombinant human Pol δ holoenzyme (heterotetramer p125/p50/p68/p12) (human) (P28340 whole entry, stated change not applied, chain 1 of 4): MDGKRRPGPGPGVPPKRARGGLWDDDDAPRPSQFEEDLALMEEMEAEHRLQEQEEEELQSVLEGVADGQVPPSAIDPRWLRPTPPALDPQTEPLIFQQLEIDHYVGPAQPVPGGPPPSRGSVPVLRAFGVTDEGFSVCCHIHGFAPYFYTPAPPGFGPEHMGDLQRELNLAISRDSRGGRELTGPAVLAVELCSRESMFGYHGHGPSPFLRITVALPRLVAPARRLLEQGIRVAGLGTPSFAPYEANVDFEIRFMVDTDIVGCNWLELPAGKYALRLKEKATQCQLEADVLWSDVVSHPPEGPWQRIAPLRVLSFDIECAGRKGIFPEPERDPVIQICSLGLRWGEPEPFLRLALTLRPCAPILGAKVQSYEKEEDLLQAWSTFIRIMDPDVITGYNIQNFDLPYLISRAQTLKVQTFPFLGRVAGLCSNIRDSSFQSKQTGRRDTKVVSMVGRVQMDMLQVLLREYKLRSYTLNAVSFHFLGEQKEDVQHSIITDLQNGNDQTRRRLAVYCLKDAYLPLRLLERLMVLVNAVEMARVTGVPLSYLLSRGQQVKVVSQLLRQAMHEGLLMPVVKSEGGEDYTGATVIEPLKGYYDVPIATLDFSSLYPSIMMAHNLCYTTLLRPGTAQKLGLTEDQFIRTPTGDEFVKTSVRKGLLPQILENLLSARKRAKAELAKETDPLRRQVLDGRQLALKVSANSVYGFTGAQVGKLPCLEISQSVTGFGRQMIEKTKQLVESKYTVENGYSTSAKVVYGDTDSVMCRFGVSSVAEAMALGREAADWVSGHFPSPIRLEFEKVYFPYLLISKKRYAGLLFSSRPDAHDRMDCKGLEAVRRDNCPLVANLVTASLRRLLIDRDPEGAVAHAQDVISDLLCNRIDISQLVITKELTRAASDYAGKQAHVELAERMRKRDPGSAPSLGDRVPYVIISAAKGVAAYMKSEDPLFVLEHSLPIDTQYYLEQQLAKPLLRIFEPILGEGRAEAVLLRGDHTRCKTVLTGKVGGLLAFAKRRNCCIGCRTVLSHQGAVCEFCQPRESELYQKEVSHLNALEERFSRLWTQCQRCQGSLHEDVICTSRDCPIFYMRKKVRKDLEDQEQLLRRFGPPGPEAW
Chain of recombinant human Pol δ holoenzyme (heterotetramer p125/p50/p68/p12) (human) (P49005 whole entry, stated change not applied, chain 2 of 4, further chain): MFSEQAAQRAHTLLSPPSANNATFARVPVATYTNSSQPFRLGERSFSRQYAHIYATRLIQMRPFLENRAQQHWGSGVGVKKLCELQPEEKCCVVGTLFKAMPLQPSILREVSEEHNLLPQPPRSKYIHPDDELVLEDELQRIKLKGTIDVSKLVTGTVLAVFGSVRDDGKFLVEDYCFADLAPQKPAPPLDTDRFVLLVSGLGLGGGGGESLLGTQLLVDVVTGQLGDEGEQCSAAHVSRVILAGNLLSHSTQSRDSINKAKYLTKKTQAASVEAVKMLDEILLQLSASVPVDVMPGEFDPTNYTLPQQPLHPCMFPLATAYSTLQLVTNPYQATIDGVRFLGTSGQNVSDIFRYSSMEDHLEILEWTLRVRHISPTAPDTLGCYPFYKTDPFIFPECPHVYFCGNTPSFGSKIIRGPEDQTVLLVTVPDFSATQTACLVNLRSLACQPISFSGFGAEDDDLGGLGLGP
Chain of recombinant human Pol δ holoenzyme (heterotetramer p125/p50/p68/p12) (human) (Q15054 whole entry, stated change not applied, chain 3 of 4, further chain): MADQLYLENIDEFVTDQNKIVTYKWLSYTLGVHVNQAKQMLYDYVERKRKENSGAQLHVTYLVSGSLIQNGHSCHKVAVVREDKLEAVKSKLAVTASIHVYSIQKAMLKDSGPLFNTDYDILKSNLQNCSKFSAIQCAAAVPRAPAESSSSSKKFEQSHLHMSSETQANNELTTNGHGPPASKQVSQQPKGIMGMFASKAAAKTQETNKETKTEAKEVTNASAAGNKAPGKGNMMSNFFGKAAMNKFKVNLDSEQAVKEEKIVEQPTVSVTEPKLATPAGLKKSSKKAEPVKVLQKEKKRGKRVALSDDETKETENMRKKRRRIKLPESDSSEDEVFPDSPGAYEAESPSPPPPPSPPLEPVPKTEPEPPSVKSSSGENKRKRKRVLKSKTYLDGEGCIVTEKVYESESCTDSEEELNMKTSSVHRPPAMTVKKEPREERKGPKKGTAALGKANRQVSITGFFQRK
Chain of recombinant human Pol δ holoenzyme (heterotetramer p125/p50/p68/p12) (human) (Q9HCU8 whole entry, stated change not applied, chain 4 of 4, further chain): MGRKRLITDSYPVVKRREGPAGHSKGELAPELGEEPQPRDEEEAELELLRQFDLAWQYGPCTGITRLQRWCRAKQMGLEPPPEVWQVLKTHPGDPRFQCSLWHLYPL

Chain of recombinant human PCNA (Proliferating Cell Nuclear Antigen) (P12004 whole entry): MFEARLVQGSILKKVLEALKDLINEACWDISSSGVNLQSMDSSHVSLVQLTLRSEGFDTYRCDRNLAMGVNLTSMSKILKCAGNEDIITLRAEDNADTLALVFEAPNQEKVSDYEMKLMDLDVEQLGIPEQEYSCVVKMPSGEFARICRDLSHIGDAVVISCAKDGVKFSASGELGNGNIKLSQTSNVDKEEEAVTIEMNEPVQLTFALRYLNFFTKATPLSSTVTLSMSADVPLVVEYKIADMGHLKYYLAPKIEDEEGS
Chain of recombinant human Pol δ core+p68 trimer (p125/p50/p68) (human) (P28340 whole entry, stated change not applied, chain 1 of 3): as the sequence (P28340 whole entry, stated change not applied, chain 1 of 4) above
Chain of recombinant human Pol δ core+p68 trimer (p125/p50/p68) (human) (P49005 whole entry, stated change not applied, chain 2 of 3, further chain): as the sequence (P49005 whole entry, stated change not applied, chain 2 of 4, further chain) above
Chain of recombinant human Pol δ core+p68 trimer (p125/p50/p68) (human) (Q15054 whole entry, stated change not applied, chain 3 of 3, further chain): as the sequence (Q15054 whole entry, stated change not applied, chain 3 of 4, further chain) above
Chain of recombinant human Pol δ core dimer (p125/p50) (human) (P28340 whole entry, stated change not applied, chain 1 of 2): as the sequence (P28340 whole entry, stated change not applied, chain 1 of 4) above
Chain of recombinant human Pol δ core dimer (p125/p50) (human) (P49005 whole entry, stated change not applied, chain 2 of 2, further chain): as the sequence (P49005 whole entry, stated change not applied, chain 2 of 4, further chain) above
Chain of recombinant human Pol δ core+p12 trimer (p125/p50/p12) (human) (P28340 whole entry, stated change not applied, chain 1 of 3): as the sequence (P28340 whole entry, stated change not applied, chain 1 of 4) above
Chain of recombinant human Pol δ core+p12 trimer (p125/p50/p12) (human) (P49005 whole entry, stated change not applied, chain 2 of 3, further chain): as the sequence (P49005 whole entry, stated change not applied, chain 2 of 4, further chain) above
Chain of recombinant human Pol δ core+p12 trimer (p125/p50/p12) (human) (Q9HCU8 whole entry, stated change not applied, chain 3 of 3, further chain): as the sequence (Q9HCU8 whole entry, stated change not applied, chain 4 of 4, further chain) above

apparent Kd for PCNA: PCNA concentration for half-maximal stimulation of polymerase activity on poly(dA)/oligo(dT), hyperbolic fit [1]: 73 nM trimer
apparent Kd for PCNA: PCNA concentration for half-maximal stimulation of polymerase activity on poly(dA)/oligo(dT), hyperbolic fit [2]: 8.7 nM trimer
apparent Kd for PCNA: PCNA concentration for half-maximal stimulation of polymerase activity on poly(dA)/oligo(dT), hyperbolic fit [3]: 9.3 nM trimer
apparent Kd for PCNA: PCNA concentration for half-maximal stimulation of polymerase activity on poly(dA)/oligo(dT), hyperbolic fit [4]: 7.1 nM trimer
Substance: recombinant human PCNA (Proliferating Cell Nuclear Antigen) (from UniProt P12004 1-261) (natural protein)

From publication PMC3377666
